From patent publication US6855549B1, “Methods and compositions for increasing the infectivity of gene transfer vectors” (The University of Iowa Research Foundation, priority 1998, dated 2005)

Assays:
epithelia = settings: in vivo; cited from earlier work
airway epithelial cells = experiment: BrdU staining of KGF-treated airway cultures; type: cell-based, human; settings: KGF 100 ng/ml, two consecutive days
Procedure: Identification of proliferating airway epithelial cells were performed using bromodeoxyuridine (BrdU) labeling reagents from Zymed Laboratories (South San Francisco, Calif.). Cells were treated with recombinant human keratinocyte growth factor (rKGF; Chiron, San Diego, Calif.) at 100 ng/ml for two consecutive days. The cells were then pulse labeled for 12 hr with a 1:100 dilution of the BrdU labeling reagent prior to fixation in 10% neutral buffered formalin. Histochemical staining of BrdU incorporation into nuclei was performed according to the manufacturer's instructions. Cells were counterstained with hematoxylin and the cell culture filters were examined by en face microscopy of the apical surface.

[1] = tested on: human bronchial epithelial cells; type: cell-based
Procedure: Primary human airway epithelial cells were collected by enzymatic digestion of bronchial samples from lung transplants as previously described (Kondo et al., 1991; Zabner et al., 1996). Isolated airway primary cells were seeded at a density of 5×10^5 cells/cm^2 onto collagen-coated Millicell-HA culture inserts (Millipore, Bedford, Mass.). Primary cultures were grown at the air-liquid interface for more than 2 wk, at which time differentiation into a mucociliary epithelium occurs. The culture medium, used to feed only the basolateral side of the cells, contained 49% Dulbecco's modified Eagle's medium (DMEM), 49% Ham's F12, and 2% Ultraser G (BioSepra, Cedex, France).
Recombinant AAV virus was produced by a CaPO4 co-transfection protocol and was purified through three rounds of isopycnic cesium chloride ultracentrifuigation, as previously described (Duan et al., 1997). […] Typical yields were 1×10^9 particles/μl, determined on the basis of DNA slot-blot hybridization assays against plasmid standards. […] Viral preparations were evaluated for the contamination of wild type AAV (wtAAV) by immunocytochemical staining of AV.GFP3ori/Ad.CMVLacZ (Duan et al., 1998)-coinfected 293 cells with anti-Rep antibodies (American Research Products, Belmont, Mass.). […]

B1: KGF: recombinant human keratinocyte growth factor (protein, UniProt P21781 32-194, looked up)
Fibroblast growth factor 7: CNDMTPEQMATNVNCSSPERHTRSYDYMEGGDIRVRRLFCRTQWYLRIDKRGKVKGTQEMKNNYNIMEIRTVAVGIVAIKGVESEFYLAMNKEGKLYAKKECNEDCNFKELILENHYNTYASAKWTHNGGEMFVALNQKGIPVRGKKTKKEQKTAHFLPMAIT
epithelia
  mutagenicity: is not mutagenic
Airway epithelial cells
  cell proliferation by BrdU incorporation: significant increases in cell proliferation
[1]; infection from the basal side
  long-term (40 day) gene expression after KGF: inhibited twofold
[1]; virus apical or basolateral
  efficiency of rAAV transduction after KGF: did not increase the efficiency of rAAV transduction
